Reference: patent US20180251562A1 (XOMA US, published 2018)
Where two headings read alike, the source gives them in different places.

How the values were obtained:
[1] = target: T1, minipig insulin receptor (INSR) on CHOK1 cells (minipig, UniProt F1SCL0 28-758; F1SCL0 763-1382); assay: flow cytometry on CHOK1 cells expressing the INSR ortholog; Fab, anti-human kappa FITC detection
T1 construct: Cells expressing minipig INSR; also called minipig INSR

[2] = target: T2, rat insulin receptor (INSR) on CHOK1 cells (rat, UniProt P15127 27-1383); assay: as above
T2 construct: whole, on cells; CHOK1 cells over-expressing rat INSR; also called rat INSR ortholog

[3] = target: T3, cynomolgus insulin receptor (INSR) on CHOK1 cells (cyno, UniProt A0A7N9D6H3 48-1390); assay: as above
T3 construct: whole, on cells; CHOK1 cells over-expressing cyno INSR; also called cynomologous INSR ortholog; monkey INSR

[4] = target: T4, human insulin receptor (INSR) on CHOK1 cells (human, UniProt P06213 28-1382); assay: as above
T4 construct: whole, on cells; CHOK1 cells over-expressing human INSR; also called human INSR; hINSR

[5] = target: T2, rat insulin receptor (INSR) on CHOK1 …; assay: binding to CHO cells expressing rat INSR; 1st column headed CHO Rat INSR; quantity and unit not printed [cont'd]
[6] = target: T4, human insulin receptor (INSR) on CHOK1 …; assay: flow cytometry on CHO cells expressing human INSR
[7] = target: T1, minipig insulin receptor (INSR) on …; assay: cell-based or functional assay
[8] = target: T2, rat insulin receptor (INSR) on CHOK1 …; assay: cell-based or functional assay
[9] = target: T3, cynomolgus insulin receptor (INSR) on …; assay: cell-based or functional assay
[10] = target: T4, human insulin receptor (INSR) on CHOK1 …; assay: cell-based or functional assay
[11] = target: T4, human insulin receptor (INSR) on CHOK1 …; assay: binding to CHO cells expressing human INSR; 2nd column headed CHO Human INSR; quantity and unit not printed [cont'd]
[12] = target: T4, human insulin receptor (INSR) on CHOK1 …; assay: cell-based or functional assay; remark: listed apart in the source
[13] = target: T3, cynomolgus insulin receptor (INSR) on …; assay: binding to CHO cells expressing cyno INSR; 1st column headed CHO Cyno INSR; quantity and unit not printed [cont'd]
[14] = target: T5, Recombinant human insulin receptor (B form) ECD (R&D Systems) (human, UniProt P06213 28-956, limits assumed); assay: SPR (Biacore 2000), INSR-ECD immobilised, purified Fab injected, 1:1 fit
T5 construct: extracellular domain; also called INSR-ECD; h-INSR

[15] = target: T3, cynomolgus insulin receptor (INSR) on …; assay: binding to CHO cells expressing cyno INSR; 2nd column headed CHO Cyno INSR (same numbers as the 1st); quantity and unit not printed [cont'd]
[16] = target: T6, solubilized human INSR (B isoform) from CHO-hINSR-B cells, without insulin (human, UniProt P06213 28-1382); assay: SPR (ProteOn XPR36), solubilized INSR-B captured by CT-3 mAb, Fab injected, -insulin
T6 construct: mature; Detergent-solubilized full-length receptor in cell lysate, captured on the SPR chip by its carboxy-terminal part; also called solubilized INSR

[17] = target: T4, human insulin receptor (INSR) on CHOK1 …; assay: cell-based or functional assay; remark: listed apart in the source
[18] = target: T2, rat insulin receptor (INSR) on CHOK1 …; assay: binding to CHO cells expressing rat INSR; 2nd column headed CHO Rat INSR (the 1st column's numbers with more digits); quantity and unit not printed [cont'd]
[19] = target: T4, human insulin receptor (INSR) on CHOK1 …; assay: binding to CHO cells expressing human INSR; 1st column headed CHO Human INSR; quantity and unit not printed [cont'd]
[20] = target: T1, minipig insulin receptor (INSR) on …; assay: flow cytometry on CHOK1 cells expressing the INSR ortholog; IgG, anti-human IgG APC detection
[21] = target: T2, rat insulin receptor (INSR) on CHOK1 …; assay: as above
[22] = target: T3, cynomolgus insulin receptor (INSR) on …; assay: as above
[23] = target: T4, human insulin receptor (INSR) on CHOK1 …; assay: as above
[24] = target: T6, solubilized human INSR (B isoform) from …; assay: SPR (ProteOn XPR36), solubilized INSR captured by CT-3 mAb, antibody injected, no insulin
[25] = target: T4, human insulin receptor (INSR) on CHOK1 …; assay: flow cytometry on CHO cells expressing human INSR; remark: listed apart in the source
[26] = target: T5, Recombinant human insulin receptor (B …); assay: SPR (Biacore 2000), INSR-ECD immobilised; relative to 247.2.018 Fab
[27] = target: T5, Recombinant human insulin receptor (B …); assay: SPR (Biacore 2000), INSR-ECD immobilised, purified Fab injected, 1:1 fit [cont'd]

Row | CHO Rat INSR [5] | EC50 (nM), pAKT signaling assay [7] [nM] | EC50 (nM), pAKT signaling assay [8] [nM] | EC50 (nM), pAKT signaling assay [9] [nM] | EC50 (nM), pAKT signaling assay [10] [nM] | CHO Human INSR [11] | EC50, pAKT assay at the EC80 concentration of insulin [12] [nM] | CHO Cyno INSR [13] | Kd [14] [nM] | CHO Cyno INSR [15] | Potency EC50 value [nM] [cont'd] [17] [nM] | CHO Rat INSR [18] | CHO Human INSR [19] | EC50 [20] [nM] | EC50 [21] [nM] | EC50 [22] [nM] | EC50 [23] [nM] | Kd [24] [nM] | Binder | also measured
1 | 1.28 | 2.5 | 4.2 | 2.8 | 3.3 | 1.63 | 7.7 | 2.62 | 9.7 | 2.62 | 1.31 | 1.28 | 2.2 |  |  |  |  |  | XPA.15.247.2.018 Fab (Fab, V domains shown, Monomeric Fab; also called XPA.247.2.018) VH: EVQLVETGGGVVQPGRSLRLSCAASGFTFSSYAMHWVRQAPGKGLEWVAVISYSGSNKYYADSVKGRFTISRDNSKNTLYLQMNSLRAEDTAVYYCARHEWGFGFDYWGQGTTVTVSS VL: DVVMTQSPLSLPVTLGQPASISCRSSQSLVYGDGNTYLNWFQQRPGQSPRRLIYKVSNRDSGVPDRFSGSGSGTEFTLKISRVEAEDVGVYFCMQGTYWPGTFGGGTKLEIKR | EC50 [1]: 2 nM; EC50 [2]: 1.9 nM; EC50 [3]: 21.9 nM; EC50 [4]: 1.6 nM; EC50 (read off the curve) [6]: ~0.2 µg/mL; Kd [16]: 6.9 nM
2 |  | 20.7 | 46.2 | 30.7 | 34.5 |  | 34.7 |  |  |  |  |  |  | 12 | 9.7 | 13.6 | 8.8 | 10 | XPA.15.247 parent antibody (IgG) (antibody, V domains shown, Tested as IgG; also called XPA.15.247 antibody) VH: EVQLVETGGGVVQPGRSLRLSCAASGFTFSSYAMHWVRQAPGKGLEWVAVISYDGSNKYYADSVKGRFTISRDNSKNTLYLQMNSLRAEDTAVYYCARHEWGFGMDVWGQGTTVTVSS VL: DVVMTQSPLSLSVTLGQPASISCRSSLSLVYGDENTYLNWFQQRPGQSPRRLLYKVSDRDSGVPDRFSGSGSGTDFTLKISRVEADDVGVYYCMQGTHWPYTFGQGTKLEIKR | koff [24]: 0.000471 s⁻¹; kon [24]: 38500 M⁻¹ s⁻¹
3 |  | 0.3 | 0.4 | 0.2 | 0.3 |  |  |  |  |  |  |  |  | 0.5 | 0.4 | 1.4 | 0.3 | 6.6 | XPA.15.247.2.018 IgG (antibody, V domains shown, Tested as IgG; also called XPA.15.247.2.018 antibody) VH: EVQLVETGGGVVQPGRSLRLSCAASGFTFSSYAMHWVRQAPGKGLEWVAVISYSGSNKYYADSVKGRFTISRDNSKNTLYLQMNSLRAEDTAVYYCARHEWGFGFDYWGQGTTVTVSS VL: DVVMTQSPLSLPVTLGQPASISCRSSQSLVYGDGNTYLNWFQQRPGQSPRRLIYKVSNRDSGVPDRFSGSGSGTEFTLKISRVEAEDVGVYFCMQGTYWPGTFGGGTKLEIKR | EC50 (read off the curve) [25]: ~0.8 µg/mL
4 | 0.621 |  |  |  |  | 0.791 |  | 0.728 | 1.4 | 0.728 | 1.16 | 0.621 | 1.06 |  |  |  |  |  | RHF.15.05896.075 (Fab, V domains shown, Untagged Fab) VH: EVQLVETGGGVVQPGRSLRLSCAASGFKFSSYAMHWVRQAPGKGLEWVAVISYSGSNKYYADSVKGRFTISRDNSKNTLYLQMNSLRAEDTAVYYCARHEWGFGYDYWGQGTTVTVSS VL: DVVMTQSPLSLPVTLGQPASISCRSSQSLVYGDGNTYLNWFQQRPGQSPRRLIYKVSNRDSGVPDRFSGSGSGTEFTLKISRVEAEDVGVYFCMQGTYWPGTFGGGTKLEIKR | Fold KD Improvement [26]: 7 fold; koff [27]: 0.00045 s⁻¹; kon [27]: 320000 M⁻¹ s⁻¹
